Patent US20180094044A1
Blank lines part the entries; values can stand above or below the substance they belong to.

Columns and labels:
[1] = target: CD19 (UniProt P15391); test: cell-based or functional assay
[2] = target: CD19 CAR with CD34 spacer #C2 (human); test: MACS selection of transduced Jurkat cells with bead-labelled antibody, flow cytometry of fractions
[3] = target: CD19 CAR with CD34 spacer #C7 (human); test: as above
[4] = target: CD19 CAR with CD34 spacer #C5 (human); test: as above
[5] = target: CD19 CAR with CD34 spacer #C3 (human); test: as above
[6] = target: CD19 CAR with CD34 spacer #C4 (human); test: as above
[7] = target: CD19 CAR with NGFR/CD271 spacer #N3; test: as above
[8] = target: CD19 CAR with NGFR/CD271 spacer #N4; test: as above
Sequence of CD19 CAR with NGFR/CD271 spacer #N4 (P08138 66-227): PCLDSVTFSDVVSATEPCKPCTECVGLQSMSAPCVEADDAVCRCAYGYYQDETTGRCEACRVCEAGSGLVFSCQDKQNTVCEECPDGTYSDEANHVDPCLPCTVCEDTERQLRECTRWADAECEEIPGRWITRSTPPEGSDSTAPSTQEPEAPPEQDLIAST

Sequence of CD19 CAR with CD34 spacer #C5 (human) (P28906 42-110): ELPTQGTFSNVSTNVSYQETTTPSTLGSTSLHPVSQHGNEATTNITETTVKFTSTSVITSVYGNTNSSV
Sequence of CD19 CAR with CD34 spacer #C3 (human) (P28906 42-90): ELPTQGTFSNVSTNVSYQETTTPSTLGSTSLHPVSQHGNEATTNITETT
Sequence of CD19 CAR with CD34 spacer #C2 (human) (P28906 32-63): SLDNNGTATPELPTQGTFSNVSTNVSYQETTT
Sequence of CD19 CAR with CD34 spacer #C4 (human) (P28906 32-90): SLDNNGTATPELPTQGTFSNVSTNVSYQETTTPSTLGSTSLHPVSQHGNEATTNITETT
Sequence of CD19 CAR with NGFR/CD271 spacer #N3 (P08138 108-227): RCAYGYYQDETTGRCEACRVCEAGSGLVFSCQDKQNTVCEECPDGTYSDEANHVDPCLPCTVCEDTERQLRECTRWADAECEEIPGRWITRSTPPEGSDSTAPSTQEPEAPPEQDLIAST
Sequence of CD19 CAR with CD34 spacer #C7 (human) (P28906 42-220): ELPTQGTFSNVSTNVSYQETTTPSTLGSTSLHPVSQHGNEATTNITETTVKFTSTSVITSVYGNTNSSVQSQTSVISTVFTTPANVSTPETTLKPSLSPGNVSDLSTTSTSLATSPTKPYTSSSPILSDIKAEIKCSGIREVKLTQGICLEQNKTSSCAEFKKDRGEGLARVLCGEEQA
Sequence of UniProt P15391 (P15391 20-556 limits assumed): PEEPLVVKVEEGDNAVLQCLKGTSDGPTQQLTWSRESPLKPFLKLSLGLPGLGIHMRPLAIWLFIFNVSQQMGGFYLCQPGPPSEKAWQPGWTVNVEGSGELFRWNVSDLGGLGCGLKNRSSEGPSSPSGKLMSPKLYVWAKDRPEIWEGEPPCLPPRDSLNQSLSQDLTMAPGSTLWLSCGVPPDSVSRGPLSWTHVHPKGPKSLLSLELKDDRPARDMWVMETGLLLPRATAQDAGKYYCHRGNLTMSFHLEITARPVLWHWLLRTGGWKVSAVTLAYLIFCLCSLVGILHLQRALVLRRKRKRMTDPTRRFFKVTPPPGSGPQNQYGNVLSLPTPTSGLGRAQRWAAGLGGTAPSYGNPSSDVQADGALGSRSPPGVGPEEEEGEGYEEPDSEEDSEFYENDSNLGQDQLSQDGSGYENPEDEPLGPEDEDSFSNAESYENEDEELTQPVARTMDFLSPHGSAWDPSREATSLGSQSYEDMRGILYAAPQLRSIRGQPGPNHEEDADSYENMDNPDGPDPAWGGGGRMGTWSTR

Substance: CD19 CAR with the IgG4 CH2CH3 as spacer domain (from UniProt P01861 99-327)
killing of REH cells at 0.1:1 effector to target cell ratio [1]: 48.9%

percent positive cells before MACS [2]: 68.7%
percent positive cells in flow through [2]: 68.1%
percent positive cells before MACS [3]: 78.4%
percent positive cells in flow through [3]: 67.1%
percent positive cells before MACS [4]: 65.5%
percent positive cells in flow through [4]: 41.1%
percent positive cells before MACS [5]: 61.6%
percent positive cells in flow through [5]: 47.6%
percent positive cells before MACS [6]: 64.3%
percent positive cells in flow through [6]: 47%
Substance: CD34 monoclonal antibody QBend10

percent positive cells before MACS [7]: 60.1%
percent positive cells in flow through [7]: 57.2%
percent positive cells before MACS [8]: 51.4%
percent positive cells in flow through [8]: 49.7%
Substance: CD271 monoclonal antibody ME20.4
